Our source for the IC50 values is the Immune Epitope Database (IEDB).

Among the targets are HLA-A*68:01; HLA-A*24:02; HLA-A*23:01; HLA-B*51:01; HLA-B*53:01; HLA-B*54:01; HLA-A*33:01; HLA-A*31:01; HLA-A*02:06; HLA-A*68:02; HLA-A*02:02; HLA-A*02:03; HLA-A*01:01; HLA-A*30:02; HLA-A*29:02; HLA-B*35:01.
Holding throughout (experiment): IEDB peptide-MHC binding, purified MHC/competitive/radioactivity; ≥ and ≤ were set here for values at or beyond the usual limits of such assays
What all share (conditions): source organism: Hepatitis B virus

In general, IC50 refers to the point on the concentration scale where inhibition reaches its midpoint. Consider QAFTFSPTYK, for which, in the assay with HLA-A*68:01, the IC50 came to 7.1 nM.
As to SAICSVVRR, the IC50 with HLA-A*68:01 stood at 22.9 nM.
For LWFHISCLTF, the values for the half-maximal inhibitory concentration (IC50) in the assay with HLA-A*24:02 and with HLA-A*23:01 were 6.5 nM and 7.7 nM, respectively.
As to RFSWLSLLVPF, the IC50 is 101 nM with HLA-A*24:02 and 12.6 nM with HLA-A*23:01.
Regarding FPHCLAFSYM, the concentration for half-maximal inhibition (IC50) with HLA-B*51:01 was found to be 68.9 nM; with HLA-B*53:01, 128 nM; in the assay with HLA-B*54:01 it was 214 nM.
Regarding STLPETTVVRR, the IC50 was determined as 187 nM with HLA-A*33:01 and 190 nM with HLA-A*31:01.
Turning to HTLWKAGILYK, in the assay with HLA-A*68:01, the concentration for half-maximal inhibition (IC50) is 48.2 nM.
On to YMDDVVLGV, for which the IC50 in the assay with HLA-A*02:06 amounted to 90.6 nM; with HLA-A*68:02 it was 422 nM; in the assay with HLA-A*02:02, 90.6 nM; in the assay with HLA-A*02:03, 11.5 nM.
Take ASFCGSPY: the IC50 with HLA-A*01:01 is 51.4 nM; with HLA-A*30:02 it was 4.3 nM; with HLA-A*29:02 it was 86.9 nM.
As to WMMWYWGPSLY, the IC50 with HLA-A*30:02 is 46.4 nM; with HLA-A*29:02, 133 nM.
For the sequence TPARVTGGVF, in the assay with HLA-B*35:01, the IC50 came to 71.6 nM.
Take RWMCLRRFII: the IC50 with HLA-A*23:01 stood at 7.5 nM.
With YPALMPLYACI, the IC50 with HLA-B*51:01 came out at 119 nM; with HLA-B*54:01, 111 nM.
Take LSLDVSAAFY: the half-maximal inhibitory concentration (IC50) is 333 nM in the assay with HLA-A*01:01 and 44.2 nM in the assay with HLA-A*29:02.
